# B1: Zfra1-31 (full-length zinc finger-like protein that regulates apoptosis, synthetic peptide) (peptide)
# peptide: MSSRRSSSCKYCEQDFRAHTQKNAATPFLAN
# notes: also called Zfra peptide; full-length Zfra
# Target: the molecule itself
# Assay: self-polymerization in PBS, reducing SDS-PAGE and Western blot
protein,measurement,value
B1,binding result,binds

# From US20190161525A1 (NATIONAL CHENG KUNG UNIVERSITY, published 2019)
